Here are results for one substance from paper PMC13107553.

What is called stoichiometry N is the number of molecules, sites or subunits per partner or assembly.

This test deals with Bicarbonate Transporter Related protein-1 (BTR1), human (human) (UniProt Q8NBS3). Briefly: cryo-EM structure; BTR1 in LMNG/CHS micelle buffer; 140 mmol/L KCl, pH 7.5, 3.25 Å; further structures in 11 buffer conditions (KCl, NaCl, NH4Cl, NH4Cl + NaCl, boric acid; varying pH), 13 states, inward- and outward-facing.

For “Bicarbonate Transporter Related protein-1 (BTR1), human (from UniProt Q8NBS3 1-875) (natural protein)”, the stoichiometry N was 2.
